# According to patent US7371842B2, “Polynucleotide encoding a 35 KDA protein thats binds to WF00144” (Astellas Pharma Inc., priority 2002, dated 2008):
# B1: Human 35 kd protein: novel 35 kd protein, amino acid sequence SEQ ID NO: 2, expressed in E. coli and purified (protein, listed as Homo sapiens)
# chain: MLGPQVWSSVRQGLSRSLSRNVGVWASGEGKKVDIAGIYPPVTTPFTATAEVDYGKLEENLHKLGTFPFRGFVVQGSNGEFPFLTSSERLEVVSRVRQAMPKNRLLLAGSGCESTQATVEMTVSMAQVGADAAMVVTPCYYRGRMSSAALIHHYTKVADLSPIPVVLYSVPANTGLDLPVDAVVTLSQHPNIVGMKDSGGDVTRIGLIVHKTRKQDFQVLAGSAGFLMASYALGAVGGVCALANVLGAQVCQLERLCCTGQWEDAQKLQHRLIEPNAAVTRRFGIPGLKKIMDWFGYYGGPCRAPLQELSPAEEEALRMDFTSNGWL
# Test: Aldol cleavage reaction of fructose 1,6-bisphosphate, coupled with TIM/G3PDH, NADH 340 nm
# Format: biochemical
# Conditions: F1,6P2 cleaved, 37° C., 30 minutes, pH 8.0
# Method: The aldolase activity of the human 35 kd protein was determined as follows, according to the method described in a reference (Novel Biochemistry Experiment Lectures, Vol. 15, Metabolism Abnormality, p. 111, edit. Biochemical Society of Japan, publish. Tokyo Kagaku Dojin-sha, Sep. 22, 1992):
# Conjugated with triose phosphate isomerase (TIM) and glycerol 3-phosphate dehydrogenase (G3PDH), the aldol cleavage reaction of fructose 1,6-bisphosphate (F1, 6P2) with the 35 kd protein was determined with NADH.
# A reaction liquid having the composition mentioned below was prepared, and reacted at 37° C. for 30 minutes. The enzymatic reaction was monitored through the reduction in the 340 nm absorbance owing to the oxidation of NADH in the reaction liquid. The enzymatic reaction was indicated by the number of mols of F1, 6P2, per mg of the protein, cleaved within 1 minute (μmol/min/mg protein).
# Reaction liquid 200 μl: 0.25 mM tris HCl buffer (pH 8.0), 0.15 M NaCl, 0.5 mM F1, 6P2 (from Sigma), human 35 kd protein, human liver TIM (500 μg/ml), rabbit skeletal muscle G3PDH (8 units/ml, from Sigma), 0.3 mM NADH (from Nakarai).
# For comparison, a commercial product aldolase, Sigma's rabbit skeletal muscle aldolase (A-type aldolase), and an enzyme-free system were tested in the same manner.
molecule,measurement,value
B1,Aldolase Activity (μmol/min/mg protein),0.0034 μmol/min/mg protein
